B1: ZBTB22 (parent)
chain: AVLAASSPYFHDQVLLKGMTSISL
B2: MED27 (parent)
chain: YNENVYTEDGKLDIWSKSNYQVFQ

Variants of: B1
Assay: protein stability index of a GFP-peptide fusion (GPS, HEK-293T) (PSI 1-6); higher = more stable
Conditions: c terminus: a fixed tail appended
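Further: lentivirally expressed fusions sorted by FACS into six bins by GFP to DsRed ratio, PSI derived from sequencing read proportions per bin multiplied by bin number.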

Variant	protein stability index
L16K	3
L16G	2.28
L16P	2.27
L16N	2.37
L16Y	3.11
L16W	2.44
L16M	3.83
L16Q	2.32
L16S	2.26
S23H	2.46
S23E	2.57
S23K	2.8
S23I	2.51
S23C	1.95
S23P	3.55
S23T	1.22
S23G	3.35
S23F	4.12
S23M	1.86
S23D	1.3
S23W	2.97
S23L	2.64
S21Y	3.85
S21A	2.04
S21G	2.85

Variant	protein stability index
S21L	3.04
S21K	2.35
S21F	2.52
S21C	3.52
S21E	1.95
S21N	2.11
S21D	2.17
S21Q	2.67
K17N	1.43
K17P	2.05
K17A	1.94
K17I	3.47
K17Y	2.88
M19K	1.37
M19R	2.92
M19P	3.42
M19T	2.57
M19C	3.68
M19Q	1.46
M19E	1.69
M19A	2.09
M19W	1.8
M19S	2.68
M19L	2.23
M19G	1.04

Variant	protein stability index
I22G	2.4
I22E	4.43
I22D	1.66
I22N	1.44
I22S	1.29
I22H	2.43
I22A	3.31
I22T	2.75
I22Q	1.09
I22C	1.83
I22Y	3.76
I22K	2.13
I22P	1.72
L24R	1.84
L24D	1.76
L24K	1.95
L24E	1.52
L24T	1.27
L24A	1.58
L24N	1.83
L24Y	3.14
L24H	1.95
L24I	3.01
L24Q	1.7
L24P	1.62

Variant	protein stability index
L24S	1.15
L24F	3.47
L24V	1.53
G18H	1.84
G18F	3.77
G18Y	3.35
G18D	3.05
G18K	2.14
G18W	2.61
G18E	1.46
G18I	2.8
G18N	2.37
G18A	3.06
G18S	3.59
G18V	2.66
T20H	1.6
T20K	2.32
T20N	2.51
T20M	3.42
T20L	3.1
T20V	4.26
T20I	2.3
T20E	2.54
T20Q	2.14

Variants of: B2
Assay: as above
Conditions: c terminus: a fixed tail appended

Variant	protein stability index
N4E	2.73
N4H	2.04
N4L	1.99
N4T	2.21
N4I	2.04
N4C	2.29
N4G	2.37
N4P	1.96
N4M	2
N4Y	1.47
N4V	1.89
N4A	2.54
N4S	1.52
N4Q	2.53
N4K	1.8
N4D	2.21
N4R	2.31
N4W	1.15
N4F	1.93
D13H	2.44
D13C	2.09
D13A	2.12
D13I	2.06
D13F	1.84

Variant	protein stability index
D13E	2.36
D13G	1.88
D9T	1.8
D9Y	2.03
D9N	1.76
D9M	1.69
D9S	1.96
D9K	2.02
D9P	2.03
D9F	1.76
D9E	2.37
D9H	1.97
D9R	1.7
D9C	1.64
D9W	2.01
D9A	1.65
D9L	1.77
D9Q	1.55
D9G	1.63
D9I	1.71
D9V	1.98
Y6S	3.26
Y6M	2.17
Y6K	2.34

Variant	protein stability index
Y6R	2.48
Y6N	3
Y6W	2.04
Y6E	3.17
Y6L	2.38
Y6P	2.68
Y6V	3.02
Y6H	2.95
Y6T	2.98
Y6C	2.84
Y6Q	2.76
Y6A	2.62
Y6G	2.57
Y6I	2.43
Y6F	2.55
Y6D	3.3
L12R	2.01
L12E	3.14
L12C	2.33
L12Y	1.93
L12V	2.58
L12D	3.34
L12T	2.21
L12S	2.37

Variant	protein stability index
L12Q	3.1
L12W	2.2
L12K	2.33
L12A	2.5
L12G	2.63
L12I	2.23
L12F	2.19
L12N	2.37
L12P	2.39
L12M	2.07
L12H	2.07
E3L	1.48
E3R	1.41
E3S	1.76
E3I	1.81
E3C	2.04
E3A	1.88
E3V	1.69
E3W	1.44
E3M	1.59
E3T	1.88
E3P	1.31
E3Q	2.17
E3K	2.31

Variant	protein stability index
E3H	1.92
E3G	2.34
E3F	1.8
E3N	2.36
E3D	1.48
E3Y	1.64
V5K	2.15
V5P	2.35
V5L	2.21
V5T	2.67
V5C	2.05
V5W	1.91
V5F	1.72
V5A	2.47
V5I	2.73
V5Q	3.06
V5Y	1.97
V5D	3.26
V5R	2.25
V5N	3.01
V5H	2.95
V5G	2.71
V5S	2.34
V5E	3.28

Variant	protein stability index
V5M	2.1
G10E	2.65
G10Q	2.5
G10H	2.61
G10A	2.3
G10L	2.17
G10S	2.23
G10F	1.65
G10M	2.73
G10W	1.99
G10K	2.91
G10I	1.93
G10P	2.42
G10R	2.21
G10Y	1.76
G10V	1.96
G10T	2.45
G10N	2.54
G10C	1.97
G10D	2.96
E8Q	1.82
E8Y	1.97
E8P	1.68
E8T	1.93

Variant	protein stability index
E8R	1.55
E8A	2.33
E8D	1.84
E8L	1.92
E8V	1.31
E8K	1.86
E8S	1.7
E8I	1.29
E8H	2.07
E8N	2.62
E8C	2.18
E8G	1.64
E8F	1.69
E8W	1.64
E8M	1.57
T7E	2.96
T7G	2.53
T7F	2.13
T7N	2.14
T7Y	2.46
T7P	2.21
T7Q	2.48
T7L	1.8
T7K	2.35

Variant	protein stability index
T7D	2.7
T7I	1.72
T7V	2.05
T7C	2.63
T7A	2.21
T7S	1.95
T7W	1.07
T7R	2.06
T7H	2.11
T7M	1.75
N2P	2.09
N2G	1.75
N2L	1.68
N2A	2.53
N2D	3.6
N2R	2.4
N2I	1.68
N2E	3.95
N2W	1.69
N2F	2.26
N2V	3.18
N2T	1.95
N2Y	2.1
N2H	1.75

Variant	protein stability index
N2M	2.01
N2S	2.02
N2C	2.47
N2Q	2.33
N2K	2.91
Y1C	2.9
Y1L	3.2
Y1M	3.52
Y1I	2.5
Y1V	3.67
Y1T	3.4
Y1K	3.28
Y1S	3.23
Y1D	3.38
Y1N	3.35
Y1G	3.7
Y1H	3.23
Y1E	4.04
Y1P	3.52
Y1R	3.11
Y1A	2.86
Y1F	2.27
Y1Q	3.74
Y1W	2.93

Variant	protein stability index
K11R	1.96
K11Q	2.38
K11I	2.71
K11H	2.2
K11S	2.45
K11L	1.59
K11F	2.22
K11P	2.13
K11T	2.43
K11A	2.27
K11E	2.93
K11M	2.32
K11D	3.48
K11N	2.56
K11G	2.22
K11W	2
K11V	2.04
K11C	1.78
K11Y	1.94

Reference: the supplement of paper PMC10567573
